According to patent US20140363438A1, “NEUREGULIN ANTIBODIES AND USES THEREOF” (Genentech, Inc., priority 2011, published 2014):

Experiments:
[1] = target: T1, Recombinant human NRG1-β ECD domain (R&D Systems, cat#377-HB/CF) (human, UniProt Q02297-11 121-191, limits assumed); test: competition ELISA on NRG1β; self-competition, signal read: 538.24.71
T1 construct: also called NRG1-beta; HRG1β
T1 sequence: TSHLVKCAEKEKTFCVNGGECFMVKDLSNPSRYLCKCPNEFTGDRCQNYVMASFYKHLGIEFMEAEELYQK

[2] = target: T2, Recombinant human NRG1-α EGF domain (R&D Systems, cat#296-HR/CF) (human, UniProt Q02297 177-241); test: competition ELISA on NRG1α; competitor whose signal is read: 526.90
T2 construct: also called NRG1-alpha; HRG1α
T2 sequence: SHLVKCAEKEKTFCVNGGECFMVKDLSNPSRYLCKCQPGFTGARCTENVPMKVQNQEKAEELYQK

[3] = target: T1, Recombinant human NRG1-β ECD domain …; test: competition ELISA on NRG1β; competitor whose signal is read: 526.90
EGF = EGF (UniProt P01133 971-1023); test: ELISA
Sequence of EGF (P01133 971-1023 limits assumed): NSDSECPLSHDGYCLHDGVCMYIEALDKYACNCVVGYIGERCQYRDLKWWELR

HB-EGF = HB-EGF (UniProt Q99075 63-148, limits assumed); test: ELISA
Sequence of HB-EGF (Q99075 63-148 limits assumed): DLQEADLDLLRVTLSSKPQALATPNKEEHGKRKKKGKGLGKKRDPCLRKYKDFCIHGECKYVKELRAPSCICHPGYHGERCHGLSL

Betacellulin (BTC) = target: T3, Betacellulin (BTC) (UniProt P35070 32-111); test: ELISA
T3 sequence (looked up): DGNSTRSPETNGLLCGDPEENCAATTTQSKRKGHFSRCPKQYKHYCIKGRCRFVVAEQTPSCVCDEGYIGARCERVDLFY

[4] = target: T2, Recombinant human NRG1-α EGF domain …; test: SPR (BIAcore T100), IgG captured by anti-human Fc, NRG1α injected; table under the head '250 nM NRG1-alpha'
Method: (§1) Binding affinities of anti-NRG1 IgGs were measured by Surface Plasmon Resonance (SRP) using a BIAcore™-T100 instrument. Anti-NRG1 human IgGs were captured by mouse anti-human Fc antibody (GE Healthcare, cat# BR-1008-39) coated on CM5 biosensor chips to achieve approximately 1000 response units (RU). […] Association rates (kₒₙ) and dissociation rates (koff) were calculated using a simple one-to-one Langmuir binding model (BIAcore Evaluation Software version 3.2). The equilibrium dissociation constant (KD) was calculated as the ratio koff/kₒₙ.

[5] = target: T1, Recombinant human NRG1-β ECD domain …; test: SPR (BIAcore T100), IgG captured by anti-human Fc, NRG1β injected; sensorgram shown for 6.25 nM (sheet: '6.25 mnM NRG beta')
Method: as §1

[6] = target: T2, Recombinant human NRG1-α EGF domain …; test: cell-based or functional assay
[7] = target: T4, Recombinant human Neuregulin 1-beta (rhNRG1b, Genentech) (human, UniProt Q02297 1-640); test: cell-based or functional assay
T4 sequence: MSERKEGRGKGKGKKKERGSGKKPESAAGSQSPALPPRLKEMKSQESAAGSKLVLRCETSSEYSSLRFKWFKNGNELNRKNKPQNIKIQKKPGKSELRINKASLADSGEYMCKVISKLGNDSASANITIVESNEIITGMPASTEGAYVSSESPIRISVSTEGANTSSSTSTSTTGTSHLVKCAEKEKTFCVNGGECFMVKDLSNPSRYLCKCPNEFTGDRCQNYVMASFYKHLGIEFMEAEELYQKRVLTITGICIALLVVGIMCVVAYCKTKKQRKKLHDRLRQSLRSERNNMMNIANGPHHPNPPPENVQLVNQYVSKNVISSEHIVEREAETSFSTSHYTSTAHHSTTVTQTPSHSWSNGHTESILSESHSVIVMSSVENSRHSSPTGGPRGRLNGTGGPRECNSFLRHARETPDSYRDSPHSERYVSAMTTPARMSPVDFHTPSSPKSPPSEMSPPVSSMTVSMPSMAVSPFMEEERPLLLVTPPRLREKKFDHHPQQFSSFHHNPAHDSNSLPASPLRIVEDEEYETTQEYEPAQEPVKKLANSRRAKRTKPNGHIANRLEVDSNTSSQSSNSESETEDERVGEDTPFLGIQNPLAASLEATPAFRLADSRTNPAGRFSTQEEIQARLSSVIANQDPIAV

[8] = target: T1, Recombinant human NRG1-β ECD domain …; test: competition ELISA on NRG1β; competitor whose signal is read: 526.02
[9] = target: T2, Recombinant human NRG1-α EGF domain …; test: SPR (BIAcore T100), IgG captured by anti-human Fc, NRG1α injected; sensorgram shown for 6.25 nM (sheet: '6.25 mnM NRG alpha')
Method: as §1

[10] = target: T1, Recombinant human NRG1-β ECD domain …; test: SPR (BIAcore T100), IgG captured by anti-human Fc; table under the head '125nM NRG-beta'; this table is identical to that of FIG. 9 (NRG1-alpha) and does not fit the slow dissociation of the sensorgrams above it
[11] = target: T2, Recombinant human NRG1-α EGF domain …; test: competition ELISA on NRG1α; self-competition, signal read: 538.24.71
[12] = target: T2, Recombinant human NRG1-α EGF domain …; test: competition ELISA on NRG1α; competitor whose signal is read: 526.02
NRG1β = target: T5, NRG1β (Homo sapiens, UniProt Q02297); test: Inhibition of 125I-HRG (NRG1β) binding to HER3-ECD-Fc; details: affinity matured clones of 538.24, FIG. 7
T5 sequence (Q02297 177-244 isoform Q02297-6 limits assumed): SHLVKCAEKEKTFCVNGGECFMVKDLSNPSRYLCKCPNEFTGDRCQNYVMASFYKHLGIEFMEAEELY
Method: The antibodies were tested for their ability to inhibit NRG1β binding to HER3-Fc. 125I-HRG was generated at Genentech as described previously (Sliwkowski et al JBC 1994). Binding assays were performed in Nunc break-apart strip wells (Thermo-Fisher Scientific, Rochester, N.Y.). Plates were coated at 4° C. overnight with 250 ng/well of HER3-ECD-Fc fusion protein in carbonate buffer (pH 9.6). Plates were rinsed twice with wash buffer (PBS/0.05% Tween 20) and blocked with 100 μL PBS including 1% bovine serum albumin (BSA) for 30 minutes. Increasing concentrations of anti-NRG1 antibodies in RPMI 1640 medium (Invitrogen; Carlsbad, Calif.) with 0.2% BSA were pre-bound to HER3-ECD-Fc. 125I-HRG (specific activity: 266 mCi/mg, 75,000 cpm/well) was added immediately after in a total assay volume of 130 μL. Plates were incubated for 2 hours at room temperature, rinsed twice, and individual wells were counted using a 100 Series Iso Data γ-counter. Samples were assayed in triplicates. Plotting was performed using KaleidaGraph 3.6 software. […]
The affinity matured variants were tested for their ability to block HRGβ binding to HER3-Fc. […] Plates were incubated for 2 hours at room temperature, rinsed twice, and individual wells were counted using a 100 Series Iso Data γ-counter. […]

[13] = target: T2, Recombinant human NRG1-α EGF domain …; test: SPR (BIAcore T100), IgG captured by anti-human Fc, 250 nM NRG1α injected; sensorgram
Method: as §1

[14] = target: T2, Recombinant human NRG1-α EGF domain …; test: competition ELISA on NRG1α; signal of 526.90 against rising 538.24.71

B1: anti-NRG1 antibody 538.24.71 (antibody, human IgG1, kappa, V domains shown)
VH: EVQLVESGGGLVQPGGSLRLSCAASGFTFSGTWIHWVRQAPGKGLEWVAAITPADGSTNYADSVKGRFTISADTSKNTAYLQMNSLRAEDTAVYYCATYMFAMDYWGQGTLVTVSS
VL: DIQMTQSPSSLSASVGDRVTITCRASQDVSISLAWYQQKPGKAPKLLIYGASNLESGVPSRFSGSGSGTDFTLTISSLQPEDFATYYCQQHYTLPFTFGQGTKVEIKR
notes: also called YW538.24.71
[1]
  IC50 (read off the curve): ~7 nM
[2]
  IC50 (read off the curve): ~4 nM
[3]
  IC50 (read off the curve): ~8 nM
EGF
  binding result: no binding
HB-EGF
  binding result: no binding
Betacellulin (BTC)
  binding result: no binding
[4]
  Kd: 2 nM
  koff: 0.03 s⁻¹
  kon: 1.5e+07 M⁻¹ s⁻¹
[5]
  Kd: 0.00192 nM
  koff: 1.48e-06 s⁻¹
  kon: 771000 M⁻¹ s⁻¹
[6]
  IC50 of inhibition of Her3 activation (phosphorylation), KIRA on MCF-7 cells, 0.5 nM rhNRG1a: 14 nM
[7]
  IC50 of inhibition of Her3 activation (phosphorylation), KIRA on MCF-7 cells, 0.2 nM rhNRG1b: 0.12 nM
[8]
  IC50 (read off the curve): ~2 nM
[9]
  Kd: 1.32 nM
  koff: 0.00603 s⁻¹
  kon: 4.57e+06 M⁻¹ s⁻¹
[10]
  Kd: 2 nM
  koff: 0.03 s⁻¹
  kon: 1.5e+07 M⁻¹ s⁻¹
[11]
  IC50 (read off the curve): ~3 nM
[12]
  IC50 (read off the curve): ~5 nM

B2: 538.24.38: affinity matured variant of 538.24; VH SEQ ID NO: 21, VL SEQ ID NO: 25 (antibody, V domains shown)
VH: EVQLVESGGGLVQPGGSLRLSCAASGFTFSGTWIHWVRQAPGKGLEWVAAITPADGSTNYADSVKGRFTISADTSKNTAYLQMNSLRAEDTAVYYCATYMFAMDYWGQGTLVTVSS
VL: DIQMTQSPSSLSASVGDRVTITCRASQDVSTAVAWYQQKPGKAPKLLIYSASFLYSGVPSRFSGSGSGTDFTLTISSLQPEDFATYYCQQSYTIPMTFGQGTKVEIKR
modifications: Heavy chain variable region; Light chain variable region
NRG1β
  blocking of 125I-NRG1β binding to Her3: All but 538.24.38 are highly effective in blocking binding

B3: 538.24.38 (antibody, V domains shown)
VH: EVQLVESGGGLVQPGGSLRLSCAASGFTFSGTWIHWVRQAPGKGLEWVAAITPADGSTNYADSVKGRFTISADTSKNTAYLQMNSLRAEDTAVYYCATYMFAMDYWGQGTLVTVSS
VL: DIQMTQSPSSLSASVGDRVTITCRASQDVSTAVAWYQQKPGKAPKLLIYSASFLYSGVPSRFSGSGSGTDFTLTISSLQPEDFATYYCQQSYTIPMTFGQGTKVEIK
notes: also called YW538.24.38; copies: 2 + 2
[13]
  binding result: binds

B4: anti-NRG1 antibody 526.90 (antibody, human IgG1, V domains shown)
VH: EVQLVESGGGLVQPGGSLRLSCAASGFTFSGNAMSWVRQAPGKGLEWVSWIYPSGGNTYYADSVKGRFTISADTSKNTAYLQMNSLRAEDTAVYYCARSYILSYPSITWAFDYWGQGTLVTVSS
VL: DIQMTQSPSSLSASVGDRVTITCRASQSISSYLAWYQQKPGKAPKLLIYGASSRASGVPSRFSGSGSGTDFTLTISSLQPEDFATYYCQQSYSTPITFGQGTKVEIKR
notes: also called YW526.90
[14]
  binding result: binds
